B1: wild-type catalase-peroxidase KatG from Mycobacterium tuberculosis (enzyme)
chain: MPEQHPPITETTTGAASNGCPVVGHMKYPVEGGGNQDWWPNRLNLKVLHQNPAVADPMGAAFDYAAEVATIDVDALTRDIEEVMTTSQPWWPADYGHYGPLFIRMAWHAAGTYRIHDGRGGAGGGMQRFAPLNSWPDNASLDKARRLLWPVKKKYGKKLSWADLIVFAGNCALESMGFKTFGFGFGRVDQWEPDEVYWGKEATWLGDERYSGKRDLENPLAAVQMGLIYVNPEGPNGNPDPMAAAVDIRETFRRMAMNDVETAALIVGGHTFGKTHGAGPADLVGPEPEAAPLEQMGLGWKSSYGTGTGKDAITSGIEVVWTNTPTKWDNSFLEILYGYEWELTKSPAGAWQYTAKDGAGAGTIPDPFGGPGRSPTMLATDLSLRVDPIYERITRRWLEHPEELADEFAKAWYKLIHRDMGPVARYLGPLVPKQTLLWQDPVPAVSHDLVGEAEIASLKSQIRASGLTVSQLVSTAWAAASSFRGSDKRGGANGGRIRLQPQVGWEVNDPDGDLRKVIRTLEEIQESFNSAAPGNIKVSFADLVVLGGCAAIEKAAKAAGHNITVPFTPGRTDASQEQTDVESFAVLEPKADGFRNYLGKGNPLPAEYMLLDKANLLTLSAPEMTVLVGGLRVLGANYKRLPLGVFTEASESLTNDFFVNLLDMGITWEPSPADDGTYQGKDGSGKVKWTGSRVDLVFGSNSELRALVEVYGADDAQPKFVQDFVAAWDKVMNLDRFDVR
modifications: covalent linkage between Trp107, Tyr229 and Met255 (MYW catalytic triad); b-type heme bound in both protomers
notes: also called WT KatG; KatG^INH (with INH added); not shown: His-tag, N-terminal, cleaved
B2: KatG W107R variant from Mycobacterium tuberculosis (enzyme)
chain: MPEQHPPITETTTGAASNGCPVVGHMKYPVEGGGNQDWWPNRLNLKVLHQNPAVADPMGAAFDYAAEVATIDVDALTRDIEEVMTTSQPWWPADYGHYGPLFIRMARHAAGTYRIHDGRGGAGGGMQRFAPLNSWPDNASLDKARRLLWPVKKKYGKKLSWADLIVFAGNCALESMGFKTFGFGFGRVDQWEPDEVYWGKEATWLGDERYSGKRDLENPLAAVQMGLIYVNPEGPNGNPDPMAAAVDIRETFRRMAMNDVETAALIVGGHTFGKTHGAGPADLVGPEPEAAPLEQMGLGWKSSYGTGTGKDAITSGIEVVWTNTPTKWDNSFLEILYGYEWELTKSPAGAWQYTAKDGAGAGTIPDPFGGPGRSPTMLATDLSLRVDPIYERITRRWLEHPEELADEFAKAWYKLIHRDMGPVARYLGPLVPKQTLLWQDPVPAVSHDLVGEAEIASLKSQIRASGLTVSQLVSTAWAAASSFRGSDKRGGANGGRIRLQPQVGWEVNDPDGDLRKVIRTLEEIQESFNSAAPGNIKVSFADLVVLGGCAAIEKAAKAAGHNITVPFTPGRTDASQEQTDVESFAVLEPKADGFRNYLGKGNPLPAEYMLLDKANLLTLSAPEMTVLVGGLRVLGANYKRLPLGVFTEASESLTNDFFVNLLDMGITWEPSPADDGTYQGKDGSGKVKWTGSRVDLVFGSNSELRALVEVYGADDAQPKFVQDFVAAWDKVMNLDRFDVR
notes: also called W107R KatG; not shown: His-tag, N-terminal, cleaved
B3: KatG T275P variant from Mycobacterium tuberculosis (enzyme)
chain: MPEQHPPITETTTGAASNGCPVVGHMKYPVEGGGNQDWWPNRLNLKVLHQNPAVADPMGAAFDYAAEVATIDVDALTRDIEEVMTTSQPWWPADYGHYGPLFIRMAWHAAGTYRIHDGRGGAGGGMQRFAPLNSWPDNASLDKARRLLWPVKKKYGKKLSWADLIVFAGNCALESMGFKTFGFGFGRVDQWEPDEVYWGKEATWLGDERYSGKRDLENPLAAVQMGLIYVNPEGPNGNPDPMAAAVDIRETFRRMAMNDVETAALIVGGHTFGKPHGAGPADLVGPEPEAAPLEQMGLGWKSSYGTGTGKDAITSGIEVVWTNTPTKWDNSFLEILYGYEWELTKSPAGAWQYTAKDGAGAGTIPDPFGGPGRSPTMLATDLSLRVDPIYERITRRWLEHPEELADEFAKAWYKLIHRDMGPVARYLGPLVPKQTLLWQDPVPAVSHDLVGEAEIASLKSQIRASGLTVSQLVSTAWAAASSFRGSDKRGGANGGRIRLQPQVGWEVNDPDGDLRKVIRTLEEIQESFNSAAPGNIKVSFADLVVLGGCAAIEKAAKAAGHNITVPFTPGRTDASQEQTDVESFAVLEPKADGFRNYLGKGNPLPAEYMLLDKANLLTLSAPEMTVLVGGLRVLGANYKRLPLGVFTEASESLTNDFFVNLLDMGITWEPSPADDGTYQGKDGSGKVKWTGSRVDLVFGSNSELRALVEVYGADDAQPKFVQDFVAAWDKVMNLDRFDVR
notes: Homodimer (C2 symmetry imposed); no ordered heme modelled in either protomer; also called T275P KatG; not shown: His-tag, N-terminal, cleaved

Target: the molecule itself
Test: cryo-EM structure
B1: binds. B2: binds. B3: binds.

From paper PMC8355310, “Using cryo-EM to understand antimycobacterial resistance in the catalase-peroxidase (KatG) from Mycobacterium tuberculosis” (Structure(London, England:1993), 2021)
